Test results: US20240245799A1, “PREPARATION METHOD FOR ANTIBODY-DRUG CONJUGATE, AND APPLICATION” (priority 2021, published 2024)

Assays:
[1] = system: NCI-H2170, LK-2 and MDA-MB-231 tumor cells; assay: In vitro cytotoxic activity test, overall statements on the tumor cells of Table 1; type: cell-based, human; conditions: statement on Table 1
Experimental: Human lung squamous carcinoma cell NCI-H2170 and LK-2, and human breast cancer cell MDA-MB-231 were selected as the cell lines for in vitro activity detection in this experiment. The expression profile of the TROP2 antigen on the surfaces of the above human tumor cells (represented by rMFI) was determined by flow cytometry (FACS). At the same time, the dose-effect profiles of Antibody Conjugate 13, DS-1062a (the control drug, prepared according to the method described in U.S. Ser. No. 11/173,213B2), the hIgG-deruxtecan conjugate and the hIgG-A-11 conjugate on cell killing were observed. The final concentrations of the antibody drug conjugates after addition were designed as a series of 9 concentrations from […] with 500 nM as the initial concentration. The changes in killing (or inhibition) over 120 hours were observed. Chemiluminescence staining (Luminescent Cell Viability Assay) was carried out, and IC50 was calculated after reading the […] data.

[2] = system: Human lung squamous carcinoma cells NCI-H2170; assay: In vivo anti-tumor experiment, subcutaneous NCI-H2170 xenograft; parameters: species or system female nude mice; conditions: single dose of 5 mg/kg intravenously on day 0, FIG. 28
Experimental: The efficacy of the combination of the present invention can be measured in vivo, i.e., an allograft or xenograft of cancer cells was implanted in rodents, and the tumors were treated with the combination. Test mice were treated with drugs or controls and monitored for several weeks or longer to measure the time to tumor doubling, log cell killing, and tumor inhibition.
Human lung squamous carcinoma cells NCI-H2170 (ATCC) were suspended in physiological saline. 4×10^7 cells were subcutaneously transplanted into the right flank of female nude mice, which were randomized into groups on day 6. Taking the grouping day as day 0, Antibody Conjugate 13, DS-1062a (the positive control drug) and the hIgG-A-11 conjugate as a negative control group were administered intravenously to the tail at a dose of 5 mg/kg respectively on day 0.

B1: DS-1062a (conjugate, chains of the INN, looked up)
VH: QVQLVQSGAEVKKPGASVKVSCKASGYTFTTAGMQWVRQAPGQGLEWMGWINTHSGVPKYAEDFKGRVTISADTSTSTAYLQLSSLKSEDTAVYYCARSGFGSSYWYFDVWGQGTLVTVSS
VL: DIQMTQSPSSLSASVGDRVTITCKASQDVSTAVAWYQQKPGKAPKLLIYSASYRYTGVPSRFSGSGSGTDFTLTISSLQPEDFAVYYCQQHYITPLTFGQGTKLEIK
modifications: deruxtecan payload
[1]
  inhibition of tumor cell proliferation / in vitro anti-tumor activity: could inhibit tumor cell proliferation significantly
[2]
  in vivo anti-tumor activity: showed anti-tumor activity
